From patent publication US20220096653A1, “CONJUGATE COMPRISING LIGAND AND CEACAM5 ANTIBODY FAB FRAGMENT” (ASTELLAS PHARMA INC., priority 2019, published 2022)
Where “and” joins values, the source holds several entries; their conditions need not be identical. Identical values can stand only once. Blank lines part the entries; values can stand above or below the molecule they belong to.

How the values were obtained:
liver metastasis = conditions: compared with the normal liver; cited from earlier work
[1] = mouse, in vivo; cited from earlier work
[2] = parameters: species or system mice (BALB/c nu/nu); conditions: mouse, in vivo
Experimental: (§2) A Gd-labeled conjugate of the conjugate containing a peptide linker produced in one of the above Examples was administered from the tail vein of tumor-bearing mice so that the protein mass was 0.02 mg (100 μL) per animal. As the tumor-bearing mice used in the present Example, mice (BALB/c nu/nu) that were in a tumor-bearing state brought about by transplanting human colorectal cancer cell line LS174T cells (ATCC(registered trademark); CL-188) at 2.0 to 5.0×10^6 cells/mouse subcutaneously on the back before administration of the sample were used. 24 hours after administration of the sample, the mice were sacrificed, the kidneys and the tumor were removed, and the amounts of Gd in the kidneys and in the tumor were measured using ICP-MS. The present test was carried out in 3 cases in each group, and the mean value of the 3 cases was calculated. The amount of Gd contained per kidney after administration was shown as a percentage of the amount of Gd administered (% of dose/tissue), and the amount of Gd contained per g of tumor tissue was shown as a percentage of the total amount of Gd administered (% of dose/g).

[3] = system: human colorectal cancer cell line LS174T cells; experiment: Amount of tumor accumulation of Gd-labeled conjugates, LS174T tumor-bearing mice (Example 4-4); conditions: Gd per g of tumor tissue, 24 hours, mean of 3 cases
Experimental: as §2

[4] = Kidney accumulation evaluation test of Gd-labeled conjugates, normal mice (Example 4-1)
Experimental: A Gd-labeled conjugate of the conjugate containing a peptide linker produced in one of the above Examples was administered from the tail vein of mice (BALB/c or BALB/c nu/nu) so that the protein mass was 0.02 mg (100 μL) per animal. After about 24 hours, the mice were sacrificed and the kidneys were removed, and the amount of Gd in the kidneys was measured using ICP-MS. The present test was carried out in 3 cases in each group, the mean value of the 3 cases was calculated, and the amount of Gd contained per kidney after administration was shown as a percentage (% of dose/tissue) of the total amount of Gd administered.
Based on the percentage of the control conjugate (% of dose/tissue), the proportion of decrease in the amount of Gd contained in the kidneys of each of the conjugates having a peptide linker was determined and shown in Table 28.

[5] = target: T1, CEACAM5 (R&D Systems, 4128-CM-050) (human, UniProt P06731 35-685); experiment: ELISA on immobilised CEACAM5, 4-parameter fit; one of 2 runs (Example 3-2)
T1 construct: Immobilised on the ELISA plate; also called human CEACAM5
T1 sequence (looked up): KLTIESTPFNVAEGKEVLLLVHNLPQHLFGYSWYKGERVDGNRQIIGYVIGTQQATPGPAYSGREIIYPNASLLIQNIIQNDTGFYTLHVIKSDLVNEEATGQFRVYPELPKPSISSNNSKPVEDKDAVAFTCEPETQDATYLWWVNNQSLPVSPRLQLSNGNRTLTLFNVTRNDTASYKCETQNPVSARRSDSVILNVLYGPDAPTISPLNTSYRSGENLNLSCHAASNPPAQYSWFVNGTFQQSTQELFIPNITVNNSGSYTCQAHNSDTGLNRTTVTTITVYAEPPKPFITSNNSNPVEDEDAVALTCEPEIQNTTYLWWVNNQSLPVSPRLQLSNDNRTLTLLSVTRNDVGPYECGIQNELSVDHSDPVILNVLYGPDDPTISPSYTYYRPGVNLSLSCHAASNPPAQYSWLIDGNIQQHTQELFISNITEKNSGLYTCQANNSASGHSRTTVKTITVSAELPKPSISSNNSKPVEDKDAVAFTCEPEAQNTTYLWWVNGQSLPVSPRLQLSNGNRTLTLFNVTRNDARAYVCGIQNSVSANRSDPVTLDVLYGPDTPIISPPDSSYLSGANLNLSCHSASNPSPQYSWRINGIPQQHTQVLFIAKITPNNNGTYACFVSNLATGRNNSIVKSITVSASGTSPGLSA
Experimental: (§1) Each anti-human CEACAM5 antibody Fab fragment conjugate prepared in Example 2 was subjected to ELISA to evaluate the binding activity thereof to CEACAM5. In the present test, a phosphate buffer (Nacalai Tesque Inc., 0.1 mol/L-Phosphate Buffer Solution (pH 7.2)) prepared to 10 mM by diluting 10-fold with distilled water was used as a solvent for an antigen immobilization liquid, and 20×PBS/Tween 20 Buffer (Thermo Fisher Scientific Inc., 28352) diluted 20-fold with distilled water was used as a wash liquid. In addition, for bovine serum albumin (BSA) used in the present test, 30% Bovine Serum Albumin solution (Sigma-Aldrich, Inc., A9576-50ML) was added in an appropriate proportion for use. CEACAM5 (R&D Systems, 4128-CM-050) was diluted with a 10 mM phosphate buffer (pH 7.2) to 0.1 μg/mL, and added to a Nunc MaxiSorp White 384 plate (Nunc, 4603272) at 30 μL per well, and the plate was incubated overnight at 4° C. for immobilization. The CEACAM5 immobilization liquid was removed by reverse centrifugation, and then blocking was carried out by adding a PBS/Tween 20 buffer containing 5.0% BSA. […] The substrate was incubated at room temperature for 15 minutes, and then a signal value thereof was measured using an Envision counter (PerkinElmer, Inc.).
The test for each antibody was carried out in duplicate, and the EC₅₀ value was calculated using a 4-parameter logistic curve model.

[6] = target: T1, CEACAM5 (R&D Systems, 4128-CM-050); experiment: ELISA on immobilised CEACAM5, 4-parameter fit; geometric mean of 9 runs
Experimental: as §1
The test for each antibody was carried out in duplicate, and an EC₅₀ value was calculated using a 4-parameter logistic curve model.

[7] = target: human cancer-specific MUC1 peptide (PTL 1) (human); experiment: ELISA on immobilised human cancer-specific MUC1 peptide, 4-parameter fit; one of 3 runs (Example 6-2)
[8] = target: human cancer-specific MUC1 peptide (PTL 1) (human); experiment: ELISA on immobilised human cancer-specific MUC1 peptide, 4-parameter fit; one of 3 runs (Example 6-1)

Molecule: CEA-Scan: mouse monoclonal antibody NP-4 Fab′ labeled with ^99mTc; FDA-approved diagnostic drug for colorectal cancer
uptake into lesion sites (liver metastasis): does not exceed the uptake into the normal liver

Molecule: [^111In]DOTA-Rituxan Fab: conjugate of [^111In]DOTA-Rituxan Fab (NPL 11)
accumulation in the kidneys [1]: highly accumulated in the kidneys

B1: [Gd/DOTA-[2,5-(1,2,3,4-tetrahydroisoquinoline)]-C(═O)-Met-Gly-Lys*-Z2(#N)]p-Fab^2 (conjugate)
heavy: EVQLVESGGGLVQPGGSLRLSCAASGFNIRDTYMHWVRQAPGKGLEWVARIDPANGNSRYVPKFQGRFTISADTSRNTAYLQMNSLRAEDTAVYYCAPFGYYVSDYAMAYWGQGTLVTVSSASTKGPSVFPLAPSSKSTSGGTAALGCLVKDYFPEPVTVSWNSGALTSGVHTFPAVLQSSGLYSLSSVVTVPSSSLGTQTYICNVNHKPSNTKVDKKVEPKSCD
light: DIQLTQSPSSLSASVGDRVTITCRAGESVDIFGVGFLHWYQQKPGKAPKLLIYRASNLESGIPSRFSGSGSRTDFTLTISSLQPEDFATYYCQQTNEDPYTFGQGTKVEIKRTVAAPSVFIFPPSDEQLKSGTASVVCLLNNFYPREAKVQWKVDNALQSGNSQESVTEQDSKDSTYSLSSTLTLSKADYEKHKVYACEVTHQGLSSPVTKSFNRGEC
Renal residual amount (tumor-bearing mice) % of dose/tissue [2]: 7.30 % of dose/tissue
Renal residual amount (tumor-bearing mice) Proportion of decrease [2]: 71.74%
Amount of tumor accumulation (tumor-bearing mice) [3]: 4.53 % dose/g
Proportion of decrease (amount of Gd contained in the kidneys) ([4]; based on control conjugate Ex-No. 47, about 24 hours): 82.9%
% of dose/tissue (amount of Gd contained per kidney) ([4]; tail vein, 0.02 mg protein per animal, about 24 hours, ICP-MS, mean of 3 cases): 5.3 % of dose/tissue

EC50 [5]: 0.14 nM and 0.21 nM
EC50 [6]: 0.2 nM
B2: anti-human CEACAM5 antibody Fab fragment PB009-01 (Fab, V domains shown)
VH: EVQLVESGGGLVQPGGSLRLSCAASGFNIRDTYMHWVRQAPGKGLEWVARIDPANGNSRYVPKFQGRFTISADTSRNTAYLQMNSLRAEDTAVYYCAPFGYYVSDYAMAYWGQGTLVTVSS
VL: DIQLTQSPSSLSASVGDRVTITCRAGESVDIFGVGFLHWYQQKPGKAPKLLIYRASNLESGIPSRFSGSGSRTDFTLTISSLQPEDFATYYCQQTNEDPYTFGQGTKVEIKR
notes: Humanized from mouse T84.66; also called Fab^2; Fab^2 fragment having no labeling portion

EC50 [7]: 0.06 nM and 0.14 nM
EC50 [8]: 0.06 nM and 0.14 nM
B3: anti-human MUC1 antibody Fab fragment P10-2 (Fab, V domains shown)
VH: QVQLVQSGAEVKKPGASVKVSCKASGYTFTNYGLSWVRQAPGQGLEWMGENHPGSGIIYHNEKFRGRVTLTADRSTSTAYMELSSLRSEDTAVYYCARSSGTRGFDYWGQGTLVTVSS
VL: DVVMTQTPLSLSVTPGQPASISCRSSQSIVHSNGNTYLEWYLQKPGQSPQLLIYRVSNRFSGVPDRFSGSGSGTDFTLKISRVEAEDVGVYYCFQGSHGPWTFGQGTKLEIKR
modifications: glutamine of amino acid 1 modified to pyroglutamic acid (as Fab^5 is defined in paragraph 370)
